According to US20160289290A1, “N-GLYCOSYLATED INSULIN ANALOGUES” (Merck Sharp & Dohme Corp., priority 2011, published 2016):
Entries after “also recorded” stand apart in the source; their conditions may differ. Where two headings read alike, the source gives them in different places.

How the values were obtained:
[1] = Glucose responsiveness in C57BL/6 mice with or without α-methylmannose; assay type: in vivo
Protocol: FIG. 40A, FIG. 40B, FIG. 40C, and FIG. 40D show in vivo activity of insulin B:P28N des(B30) analogues with an N-glycan attached to position B28. C57BL/6 mice at 12 weeks of age were fasted two hours before dosed with insulin des(B30) analogues with GS2.1 or GS5.0 N-glycan compositions by s.c injection. The effect on blood glucose was determined as a function of time in the absence and presence of α-methylmannose. FIG. 40A: vehicle; FIG. 40B: GS5.0; FIG. 40C: GS2.1; and FIG. 40D: summarizes the results.
To study the glucose responsiveness of the GS2.1 and GS5.0 insulin analogues, C57BL/6 mice at 12 weeks of age were fasted two hours before dosed with GS2.1 or GS5.0 by s.c injection. At the same time, animals received i.p. administration of α-methylmannose solution (21.5% w/v in saline, 10 ml/kg) or vehicle. […] Blood glucose was measured using a glucometer (OneTouch Ultra LifeScan; Milpitas, Calif.) at time 0 and then 30, 60, 90, and 120 minutes post injection. Glucose Area-Over-the-Curve (AOC) was calculated using values normalized to glucose of time 0 (as 100%).

[2] = mouse, in vivo
[3] = Glucose levels during mouse ITT; assay type: in vivo
[4] = biological target: T1, insulin receptor (IR) (Homo sapiens, UniProt P06213); test: In vitro insulin receptor phosphorylation / IR signaling assay (FIG. 5C); assay type: cell-based
Description: (§1) FIG. 5A, FIG. 5B, FIG. 5C, and FIG. 5D show[s] in vitro activities of the two N-glycosylated insulin analogues at the insulin and insulin-like growth factor (IGF-1) receptors.
(§2) N-glycans provide a means for modulating IR binding. […] The sialylated N-glycans extended the PK of the insulin relative to insulin analogues having non-sialylated N-glycans. However, the extended PK is balanced by the reduced binding at the IR. […] In light of the examples shown herein, modulating insulin-IR interactions can be accomplished by providing glycosylated insulin analogues in which one or more N-glycans have been added to the molecule by N-linked glycosylation in vivo or by attaching one or more of the N-glycans to the insulin molecule in vitro or a combination of both.

[5] = Circulating insulin analogue levels during insulin tolerance test (ITT); conditions: FIG. 3A/3B
[6] = biological target: IGF-1R (Homo sapiens, UniProt P08069); test: IGF-1 receptor binding (FIG. 5B)
Description: as §1
Published studies have shown insulin to have a reduced interaction with IGF-1R when it contains a net negative charge at the end of the B-chain (Slieker et al., op. cit.). Therefore, we hypothesized that an N-glycosylated insulin analogue having sialic acid terminated-N-glycans would have reduced IGF-1R binding.

[7] = biological target: T1, insulin receptor (IR); test: In vitro insulin receptor binding (FIG. 5A)
Description: as §1, §2

Substance	Percent glucose AOC in the presence and absence of α-methylmannose ([1]; AOC normalized to glucose at time 0)	Blood glucose lowering, dosed alone ([1]; s.c., i.p. vehicle, 0-120 min, GS5.0 at 18 nmol/kg)	Blood glucose lowering in the presence of α-methylmannose ([1]; s.c., i.p. α-methylmannose 21.5% w/v, 10 ml/kg)	AUC of circulating insulin analogue levels [2]	In vivo glucose-lowering activity ([3]; FIG. 4)	In vitro IR signaling activity [4]	AUC of circulating insulin analogue levels [5]	AUC of circulating insulin analogue levels ([5]; listed as sialic acid-terminated glycoform)	IGF-1R binding affinity [6]	In vivo glucose-lowering activity ([3]; FIG. 4, listed as sialic acid-terminated glycoform)	In vitro IR binding [7]
GS5.0: insulin heterodimer, native A-chain, des(B30) B:P28N B-chain, Asn28 attached to a G2 N-glycan (SEQ ID NO:295)	no change was detected	lowered glucose during 120 min study period	no detectable additional effect on glucose lowering	statistically significant improvements in AUC relative to mature NOVOLIN	retained activity at the insulin receptor	–	–	–	–	–	–
GS6.0: insulin heterodimer, native A-chain, des(B30) B:P28N B-chain, Asn28 attached to an A2 N-glycan (SEQ ID NO:294)	–	–	–	–	–	reduced activity	statistically significant improvements in AUC relative to mature NOVOLIN	even greater AUC measurements relative to the galactose-terminated glycoform	interacts with IGF-1R with even less affinity than NOVOLIN	retained activity at the insulin receptor; also recorded: longest glucose-lowering activity of all des(B30) samples	reduced binding activity to IR
